According to patent US20150160214A1, “Quantitation of Cellular Adhesion Dynamics Across Immobilized Receptors Under Rheological Shear Flow” (Mayo Foundation for Medical Education and Research, priority 2013, published 2015):

Columns and labels:
[1] = Secondary structure contribution calculated from CD-spectra (CDNN); format: physicochemical
Procedure: Fluorescence and circular dichroism spectra of A1 and of RCAM A1 were measured to compare the basic spectroscopic properties of the two protein variants (FIG. 13). The fluorescence spectrum of native A1 has a relatively low intensity with λmax of ˜345 nm. In presence of 2 M GdnHCl the fluorescence intensity increases as the interior of the protein becomes solvent accessible and a red shift of the spectrum to ˜351 nm occurs. […] Nevertheless, RCAM A1 is still retains significant secondary structure content in solution; the distribution of which is summarized in Table 1. In the near UV, the CD of disulfide-intact A1 show a well-defined spectral banding pattern between 260 and 300 nm indicating significant tertiary structure content that is absent in RCAM A1.
Urea and GdnHCl induced unfolding of A1 and of RCAM A1 at 25° Celsius was monitored via CD at 222 nm on an Aviv Biomedical Model 420C circular dichroism spectrometer. A 1 mm quartz cuvette and protein concentrations of 5 or 10 μM were used. Samples were equilibrated in their urea or GdnHCl containing buffer at 25° Celsius overnight. CD-signal was averaged for 5 to 10 min using an integration time of 1 s. CD-spectra were measured at 20° Celsius using 0.1 or 1 mm quartz cells with a step width of 1 nm between 190 and 260 nm with an integration time of 20 s and a bandwidth of 1 nm. CD-spectra in the near UV range (260-360 nm) were recorded using a 5 cm quartz cell with a 120 s integration time. Transition curves and protein spectra were corrected for the CD Signal of the corresponding buffer.

[2] = target: T1, platelet GPIbα (Homo sapiens, UniProt P07359); assay: Platelet pause times on surface-captured A1 domain variants, parallel plate flow chamber (Table 4, Example 3); format: cell-based; conditions: shear rate 1500 s^−1; mean ± std. dev., number of measurements in parentheses; NB = No Binding
T1 construct: endogenous in cells; host or cells: platelets in citrated whole blood of normal healthy volunteer donors
Procedure: The determination and analysis of platelet pause times and instantaneous translocation velocities over surface captured A1 and RCAM A1 was performed as previously described (Tischer:2013). Here, the inventor used the Cellix Mims Evo syringe pump controlled by VenaFluxAssay (www.cellixltd.com). Vena8™ CGS biochips were custom designed with 800 μm width by 80 μm height microchannels bonded to glass slides with a Cu^2+ chelated PEG surface serviced by Microsurfaces Inc. (www.proteinslides.com/histag.html) to which the A1 and RCAM A1 in TBS were captured by the 6×His-Tag at a total concentration of 5 μM. Citrated whole blood was obtained from the informed consent of healthy volunteer donors with approval from the Mayo Clinic Institutional Review Board and 100 μL was perfused over the surface captured A1 domains at 700 s^−1. The shear was increased or decreased in a stepwise manner to measure the dynamics of platelet adhesion at high and low shear. After allowing the flow chamber to equilibrate for 50 s at each shear rate, 1 min movies were recorded at 24 frames per second in phase contrast at 200× magnification with 2×2 pixel binning on a Zeiss AxioCam Mrm camera (6.45 μm/px) attached to a Zeiss Axio Observer.D1 inverted microscope. Tracking analysis was performed using MediaCybernetics ImagePro® Premier (www.mediacy.com/index.aspx?page=IP\_Premier) The distance travelled in the direction of flow was calculated from the coordinate data for each platelet as a function of time using √{square root over ((xt−x0)^2)}, where x0 is the coordinates of a platelet on the first frame of the movie and xt is the coordinate on subsequent frames of the movie. These trajectories were differentiated into instantaneous velocities using a Savitzky-Golay algorithm (Savitzky:1964) with a five data point window size and a second order polynomial implemented into a Mathematica (www.wolfram.com/mathematica) notebook written in our lab. Trajectories were retained for statistical analysis if the platelet was present for ≧1 s and travelled a total distance greater than 1 Distance travelled in pixels (px) was converted to (μm) using 6.45 μm/px*2/200=0.0645 μm/px. Pause times were determined by the amount of time (sec) a platelets velocity was 0±4 px/s≅0±0.23 μm/s, within the noise. Data are reported as mean velocities and pause times attained by individual platelets averaged over all platelets analyzed. Integral analysis of the cumulative pause time histogram gives the survival fraction, equation (24).
The rheological interaction of platelets with A1 domain variants harboring type 2M and type 2B mutations was studied using recently developed flow-chamber methods (19). The A1 domains ([…]) were immobilized on Vena8™ biochips (Cellix, Dublin, Ireland) coated with a Cu^2+-chelated poly-ethylene-glycol surface serviced by MicroSurfaces, Inc. (Englewood, N.J.) via the 6×His-Tag, enabling the preservation of the structural properties of the domain in solution and its concomitant effects on platelet adhesion under rheological shear flow. One-hundred microliters of citrated whole blood, obtained from the informed consent of normal healthy volunteer donors with approval from the Mayo Clinic Institutional Review Board (Rochester, Minn.), was perfused at a shear rate of 800 s^−1 followed by Tris-buffered saline. Platelets translocating on the surface-captured domains were filmed at 24 frames/s for 1 min at logarithmic intervals of the shear rate. Coordinates obtained from tracking analysis of the resulting movies were processed using the inventor recently developed statistical analytics for the quantification of cellular adhesion dynamics across immobilized receptors under rheological shear flow (supra). Biochips lacking the surface-captured A1 domain were completely inert to platelets.

[3] = calculated from CD-spectra, CDNN

Pause Time 1500 s^−1 (s) [2]: 0.67 ± 0.07 (6) s
Substance: A1-1238: Recombinant human vWF A1 domain, amino acids Q1238-P1471, with N-terminal 6×His-Tag, disulfide intact
% α-Helix [1, 3]: 38.0%
% β-sheet [1, 3]: 15.6%
% Remainder ([1]; β-turns and random coil structure): 46.4%
